Laboratory results published in US20210284747A1 (CAPELLA BIOSCIENCE, published 2021).
Residue numbers refer to the chain shown, from its start. Each block holds one binder with its values, some of them ahead of it.

Assays:
[1] = target: T1, Human LIGHT stably expressed on EL4 cells (EL4-LIGHT) (human, UniProt O43557 1-240); assay: flow cytometry, against F19 and F23
T1 construct: whole, on cells; also called membrane LIGHT

[2] = target: T1, Human LIGHT stably expressed on EL4 …; assay: flow cytometry, EL4-LIGHT cells
Method: The EC50 of the 7 mAbs were calculated from binding to EL4-LIGHT cells (FIG. 1). […] Non-linear regression analysis was performed to determine the functional binding affinity measurement or EC50 for each mAb. A range of functional affinities was observed.

[3] = target: Full length LIGHT G188A on HEK293FF cells (Homo sapiens (Human), UniProt O43557 1-240); assay: flow cytometry, HEK293FF, mAb at EC50
Method: (§1) The day of transfection the cells were seeded in a 24-well plate at 0.6×10⁶ cells/well. Lipofectamine 2000 (ThermoFisher scientific), 3 ul, was mixed with 50 μl OptiMEM medium (GIBCO) and then added to 50 μl Opti-MEM medium containing 3 ug plasmid DNA and incubated for 20 min at RT to form DNA-Lipofectamine 2000 complexes which were then added to the HEK293FF cells and incubated at 37° C., 5% CO₂ for 24 hours. For each construct, in duplicate, 0.60×10⁶ cells/well were used in a 96 well round bottom plate. Cells were centrifuged for 3 minutes at 300×g at 4° C., the supernatant discarded and the cells washed with 150 μl FACS buffer (0.5% FBS in phosphate buffered saline). This process was repeated 3 times. […] The wells were washed 3 times as above and 50 μl/well of goat anti-human IgG FITC (1:1500 dilution in FACS buffer, SIGMA F9512-2ML) or goat anti-mouse APC (1/500 dilution in FACS buffer, BDBioscience 550826), as appropriate, was added to the wells and incubated for 30 min at 4° C. protected from the light, with shaking. The cells were then washed as above, resuspended in 100 μl of FACS buffer and binding of the antibodies to the constructs was measured using flow cytometry and a total of 10,000 cells were acquired for each sample. Controls of buffer and secondary antibody only as well as HEK293FF non transfected cells were also used.

[4] = target: Full length LIGHT R189A on HEK293FF cells (Homo sapiens (Human), UniProt O43557 1-240); assay: flow cytometry, HEK293FF, mAb at EC50
Method: as §1

[5] = target: Full length LIGHT A190S on HEK293FF cells (Homo sapiens (Human), UniProt O43557 1-240); assay: flow cytometry, HEK293FF, mAb at EC50
Method: as §1

[6] = target: Full length LIGHT T191A on HEK293FF cells (Homo sapiens (Human), UniProt O43557 1-240); assay: flow cytometry, HEK293FF, mAb at EC50
Method: as §1

[7] = target: Full length LIGHT S192A on HEK293FF cells (Homo sapiens (Human), UniProt O43557 1-240); assay: flow cytometry, HEK293FF, mAb at EC50
Method: as §1

[8] = target: Full length LIGHT S193A on HEK293FF cells (Homo sapiens (Human), UniProt O43557 1-240); assay: flow cytometry, HEK293FF, mAb at EC50
Method: as §1

[9] = target: Full length LIGHT S194A on HEK293FF cells (Homo sapiens (Human), UniProt O43557 1-240); assay: flow cytometry, HEK293FF, mAb at EC50
Method: as §1

[10] = target: Full length LIGHT R195A on HEK293FF cells (Homo sapiens (Human), UniProt O43557 1-240); assay: flow cytometry, HEK293FF, mAb at EC50
Method: as §1

[11] = target: Full length LIGHT V196A on HEK293FF cells (Homo sapiens (Human), UniProt O43557 1-240); assay: flow cytometry, HEK293FF, mAb at EC50
Method: as §1

[12] = target: Full length LIGHT W197A on HEK293FF cells (Homo sapiens (Human), UniProt O43557 1-240); assay: flow cytometry, HEK293FF, mAb at EC50
Method: as §1

[13] = target: Full length LIGHT W198A on HEK293FF cells (Homo sapiens (Human), UniProt O43557 1-240); assay: flow cytometry, HEK293FF, mAb at EC50
Method: as §1

[14] = target: T2, Human LIGHT-32L, on II23 cells (human, UniProt O43557 1-240); assay: flow cytometry on II23-LIGHT 32L cells, 4 ug mAb in 100 uL, goat anti-human Fc gamma-PE; signal as % of the commercial anti-LIGHT-PE
T2 construct: also called II23-LIGHT 32L
T2 chain: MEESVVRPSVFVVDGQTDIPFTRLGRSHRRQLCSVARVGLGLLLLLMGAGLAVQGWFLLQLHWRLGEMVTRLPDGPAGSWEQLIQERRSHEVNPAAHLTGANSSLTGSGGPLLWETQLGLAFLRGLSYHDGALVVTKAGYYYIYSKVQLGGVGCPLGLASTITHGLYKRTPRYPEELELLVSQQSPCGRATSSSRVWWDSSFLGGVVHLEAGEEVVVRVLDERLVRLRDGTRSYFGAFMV
Method: The cells were suspended at 1×10⁷ cells/ml and 100 uL aliquots were placed into wells of a 96-well plate, the cells spun down and washed in FACS buffer at 1800 rpm for 2 min. The cells were blocked with 1:100 dilution of anti-CD16/CD32 (eBioscience, San Diego, USA) in FACS buffer for 20 min at room temperature and then washed 1× in FACS buffer at 1800 rpm for 2 min. The cells were then resuspended in 100 uL FACS buffer+4 ug anti-membrane LIGHT mAbs or anti-LIGHT-PE (eBioscience, lot: E01621-1632) for 30 min in the dark at room temperature, followed by washing 1× in FACS buffer at 1800 rpm for 2 min and then resuspended in 100 uL FACS buffer plus 1:100 goat anti-human Fcγ-PE secondary antibody or no secondary antibody at 4° C. in the dark for 30 min. The cells were again washed 1× in FACS buffer at 1800 rpm for 2 min and fixed in 200 uL 2% paraformaldehyde overnight at 4° C. and read on a flow cytometer.

[15] = target: LIGHT without residues 81-84, stably expressed on EL4 cells (EL4-NC-LIGHT); assay: cell-based or functional assay

Sequence of Full length LIGHT V196A on HEK293FF cells (O43557 whole entry V196A): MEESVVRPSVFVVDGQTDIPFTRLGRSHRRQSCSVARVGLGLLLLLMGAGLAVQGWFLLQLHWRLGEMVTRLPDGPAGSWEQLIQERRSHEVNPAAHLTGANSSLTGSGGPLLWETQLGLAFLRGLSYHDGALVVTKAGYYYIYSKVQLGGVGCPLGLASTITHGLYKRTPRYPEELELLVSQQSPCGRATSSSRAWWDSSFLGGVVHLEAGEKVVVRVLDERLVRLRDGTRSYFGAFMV
Sequence of Full length LIGHT G188A on HEK293FF cells (O43557 whole entry G188A): as the sequence (O43557 whole entry V196A) above, with G188A, A196V counted along it
T1 sequence (O43557 whole entry): as the sequence (O43557 whole entry V196A) above, with A196V counted along it
Sequence of Full length LIGHT S192A on HEK293FF cells (O43557 whole entry S192A): as the sequence (O43557 whole entry V196A) above, with S192A, A196V counted along it
Sequence of Full length LIGHT R189A on HEK293FF cells (O43557 whole entry R189A): as the sequence (O43557 whole entry V196A) above, with R189A, A196V counted along it
Sequence of Full length LIGHT S194A on HEK293FF cells (O43557 whole entry S194A): as the sequence (O43557 whole entry V196A) above, with S194A, A196V counted along it
Sequence of Full length LIGHT R195A on HEK293FF cells (O43557 whole entry R195A): as the sequence (O43557 whole entry V196A) above, with R195A, A196V counted along it
Sequence of Full length LIGHT W197A on HEK293FF cells (O43557 whole entry W197A): as the sequence (O43557 whole entry V196A) above, with A196V, W197A counted along it
Sequence of Full length LIGHT W198A on HEK293FF cells (O43557 whole entry W198A): as the sequence (O43557 whole entry V196A) above, with A196V, W198A counted along it
Sequence of Full length LIGHT A190S on HEK293FF cells (O43557 whole entry A190S): as the sequence (O43557 whole entry V196A) above, with A190S, A196V counted along it
Sequence of Full length LIGHT T191A on HEK293FF cells (O43557 whole entry T191A): as the sequence (O43557 whole entry V196A) above, with T191A, A196V counted along it

B1: 3E09 chimeric IgG4 mAb (antibody, V domains shown)
VH: EVQLVESGGGLVKPGGSLKLSCEASGFTFSDYYMYWVRQTPEKRLEWVAAIGDGGIYTYYADTVKGRFTISRDNAKNILYLQMSSLKSNDTAMYYCARGTGDGFAYWGQGTLVTVS
VL: DIVLTQSPASLAVSLGQRATISCRASESVDSYGNSFMHWYQQKPGQPPKLLIYLASNLESGVPARFSGSGSRTDFTLTIDPVEADDAATYYCQQNNEDPYTFGGGTKLEIK
notes: Chimeric human IgG4 (S-to-P, L-to-E) with human CL, as m1; also called Parental 3E09
- binding ratio, mAb to LIGHT trimer [1]: 1 mAb per LIGHT trimer
- EC50 [2]: 10.4 nM
- % of WT binding [3]: 35%
- % of WT binding [4]: 1%
- % of WT binding [5]: 97%
- % of WT binding [6]: 88%
- % of WT binding [7]: 50%
- % of WT binding [8]: 0%
- % of WT binding [9]: 1%
- % of WT binding [10]: 1%
- % of WT binding [11]: 34%
- % of WT binding [12]: 1%
- % of WT binding [13]: 48%
- binding result [14]: binds

B2: 3B04_var8 (antibody, V domains shown)
VH: QVQLVQSGAEVKKPGASVKVSCKASGYTFTDYEMHWVRQAPGQGLEWMGEIDPETGDTAYAQKFQGRVTLTADKSTSTAYMELSSLRSEDTAVYYCSRETDYFFDYWGQGTLVTVSS
VL: DIQMTQSPSSLSASVGDRVTITCGASENIYGALNWYQRKQGKAPKLLIYGATNLADGVPSRFSGSGSGRDYTLTISSLQPEDFATYYCQNVLTTPWTFGQGTKLEIKR
- IC50, inhibition of IL-8 secretion, HT-29 + EL4-NC-LIGHT cells [15]: 0.05 nM

B3: 3D12_var11 (antibody, V domains shown)
VH: B2 VH with G26D, Y32S, M34I, D57G
VL: B2 VL with R38Q, Q40P, F83V, T93S
- IC50, inhibition of IL-8 secretion, HT-29 + EL4-NC-LIGHT cells [15]: 0.55 nM

B7: 3B04_var12 (antibody, V domains shown)
VH: B2 VH
VL: B2 VL with R38Q, Q40P
- IC50, inhibition of IL-8 secretion, HT-29 + EL4-NC-LIGHT cells [15]: 0.07 nM

B10: 3D12_var10 (antibody, V domains shown)
VH: B2 VH with G26D, Y32S, M34I, M48I, D57G, A61N
VL: B2 VL with R38Q, Q40P, F83V, T93S
- IC50, inhibition of IL-8 secretion, HT-29 + EL4-NC-LIGHT cells [15]: 0.44 nM

B11: 3D12_var2 (antibody, V domains shown)
VH: B2 VH with G26D, Y32S, M34I, M48I, D57G, A61N
VL: B2 VL with K45Q, P59S, F83V, T93S
- IC50, inhibition of IL-8 secretion, HT-29 + EL4-NC-LIGHT cells [15]: 0.74 nM

B13: 3D12_var1 (antibody, V domains shown)
VH: B2 VH with G26D, Y32S, M34I, M48I, D57G, A61N, Q65K, V68A
VL: B2 VL with K45Q, P59S, F83V, T93S
- IC50, inhibition of IL-8 secretion, HT-29 + EL4-NC-LIGHT cells [15]: 0.33 nM

B16: 3B04_var10 (antibody, V domains shown)
VH: B2 VH with M48I, A61S, L83F
VL: B2 VL with R38Q, Q40P
- IC50, inhibition of IL-8 secretion, HT-29 + EL4-NC-LIGHT cells [15]: 0.04 nM

B18: 3D12_var6 (antibody, V domains shown)
VH: B2 VH with G26D, Y32S, M34I, M48I, D57G, A61N
VL: B2 VL with F83V, T93S
- IC50, inhibition of IL-8 secretion, HT-29 + EL4-NC-LIGHT cells [15]: 0.47 nM

B19: 3B04_var2 (antibody, V domains shown)
VH: B2 VH with M48I, A61S, L83F
VL: B2 VL with K45Q, P59S
- IC50, inhibition of IL-8 secretion, HT-29 + EL4-NC-LIGHT cells [15]: 0.06 nM

Next, values leading:

- IC50, inhibition of IL-8 secretion, HT-29 + EL4-NC-LIGHT cells [15]: 0.53 nM
B4: 3D12_var3 (antibody, V domains shown)
VH: B2 VH with G26D, Y32S, M34I, D57G
VL: B2 VL with K45Q, P59S, F83V, T93S

- IC50, inhibition of IL-8 secretion, HT-29 + EL4-NC-LIGHT cells [15]: 0.71 nM
B5: 3D12_var9 (antibody, V domains shown)
VH: B2 VH with G26D, Y32S, M34I, M48I, D57G, A61N, Q65K, V68A
VL: B2 VL with R38Q, Q40P, F83V, T93S

- IC50, inhibition of IL-8 secretion, HT-29 + EL4-NC-LIGHT cells [15]: 0.54 nM
B6: 3D12_var7 (antibody, V domains shown)
VH: B2 VH with G26D, Y32S, M34I, D57G
VL: B2 VL with F83V, T93S

- IC50, inhibition of IL-8 secretion, HT-29 + EL4-NC-LIGHT cells [15]: 0.05 nM
B8: 3B04_var1 (antibody, V domains shown)
VH: B2 VH with M48I, A61S, Q65K, V68A, L83F
VL: B2 VL with K45Q, P59S

- IC50, inhibition of IL-8 secretion, HT-29 + EL4-NC-LIGHT cells [15]: 0.59 nM
B9: 3D12_var5 (antibody, V domains shown)
VH: B2 VH with G26D, Y32S, M34I, M48I, D57G, A61N, Q65K, V68A
VL: B2 VL with F83V, T93S

- IC50, inhibition of IL-8 secretion, HT-29 + EL4-NC-LIGHT cells [15]: 0.04 nM
B12: 3B04_var4 (antibody, V domains shown)
VH: B2 VH
VL: B2 VL with K45Q, P59S

- IC50, inhibition of IL-8 secretion, HT-29 + EL4-NC-LIGHT cells [15]: 0.04 nM
B14: 3B04_var5 (antibody, V domains shown)
VH: B2 VH with M48I, A61S, Q65K, V68A, L83F
VL: B2 VL

- IC50, inhibition of IL-8 secretion, HT-29 + EL4-NC-LIGHT cells [15]: 0.09 nM
B15: 3B04_var9 (antibody, V domains shown)
VH: B2 VH with M48I, A61S, Q65K, V68A, L83F
VL: B2 VL with R38Q, Q40P

- IC50, inhibition of IL-8 secretion, HT-29 + EL4-NC-LIGHT cells [15]: 0.08 nM
B17: 3B04_var6 (antibody, V domains shown)
VH: B2 VH with M48I, A61S, L83F
VL: B2 VL
